Experimental data reported in the supplement of paper PMC12764529.

experiment: folding stability dG unfold (combined trypsin and chymotrypsin); higher = more stable
Method: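 Folding stability of de novo designed mini-proteins (<80 aa, no Cys; designed by TrROS, TrMRF, ProteinMPNN and the joint model) was measured by cDNA display proteolysis with trypsin and chymotrypsin. Each protease was used at 11 concentrations in a threefold dilution series plus a no-protease condition. K50 was inferred by Bayesian fitting of sequencing counts, and dG unfold was derived against a sequence-predicted unfolded-state K50 (Tsuboyama et al. method). Sequences shown include variable-length N-terminal GS-type padding (SAGGSAGG...) inside a display construct carrying a PA tag. Rows were kept only if the AF2 dimer inter-PAE was >15, to exclude likely homo-oligomers.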

Sequence | folding stability dG unfold
SAGPLKPGKTIEVPMEFTSPSDIVDELEKLPGIKDIEPTGIEPEPNPDGPPRIRVPFTFKIPKDGEPLSAGG [r19_221_TrROS] | < -1 kcal/mol
SMTVITAEPNLPPEKKAAVEAVRERVKANPDKPMDADEIKEFIKEEFGDPNFTILKVTIIPKAPPVVALSSA [r9_620_JUSTAS] | < -1 kcal/mol
SNMPIFVRIEHNDGKEVEIPIKGSREQLKDNIQEEIQEYAQENGHKPRSIKVEVYDFGNNQEQTRTIPVKSA [r9_1193_TrROS] | < -1 kcal/mol
SAGGGMKKYTESTVPLPPGRPDVVERLRAEYPNLEVEREGPADTGTLPTTVKVPAPDGSPLASIELGSAGGS [r8_267_JUSTAS] | < -1 kcal/mol
SAGGSAGGSAGEPVKIPITIKMRDNGKPREQPFKVEVEPNPDGNTQHKLNMPEGNITEIESAGGSAGGSAGG [r11_816_TrROS] | < -1 kcal/mol
SAGVPVDLHHDPKGVELATSTSYTPSGEPVGSSSSTHTVPGTGTPVSVYSPVYDDGAGLITRTYLAKLSAGG [r19_185_JUSTAS] | < -1 kcal/mol
SAGGSAGGSANPRTITVQYPVDPNGKPLPAEELADELQNEPFKVTDPQWNPEDGYVEDTIEVSAGGSAGGSA [r18_466_TrROS] | < -1 kcal/mol
SAGGSAGGSAGGPDIKEAKPGLYPDKPVIYFKLPDREVVLFPGPKERFVKFGDKVLKIPSAGGSAGGSAGGS [r10_559_TrMRF] | < -1 kcal/mol
SAGSEIYEAAKAGKKATVPVETTLTEVTEESVTPLGGPTLKAREVARTTFNAKLTKFDPKTGKITTDLPSAG [r5_5_JUSTAS] | < -1 kcal/mol
SAGGSAGGSAGGSKLPPGAKVKIRFPNNNKEHEIKSPEQIKTFEIDGREMKIRKIEVEDSAGGSAGGSAGGS [r4_214_TrROS] | < -1 kcal/mol
SAGGPDDYPIRIAVYPPDGEIKEEITIPNNWTIKYFPNDDPRIMIQDPGNGETVPVKTPEDIKDLIQSAGGS [r8_232_TrROS] | < -1 kcal/mol
SAGGSAGGSAGGMITVKDPATGKWREVTPEELEEVLAANPGPITVEREGGRRTVPAALLSAGGSAGGSAGGS [r10_839_JUSTAS] | < -1 kcal/mol
SAGIKPGDPLIIKFNFPPEARDKIKKLLEDPGFTYENDPDKGSVSIVFPAADVDRLQDLPGISEIVPVSAGG [r19_212_TrROS] | < -1 kcal/mol
SSVKIEEKPLPDGTILVTITTPPENPEEVAEKVKEEVKAPVTVTSVEEVELEEGEKPLKVVKITIEVDKASA [r9_431_JUSTAS] | < -1 kcal/mol
SSDDKEEQKKRQKAQAKPKPKMEPVWVPIEVRDPDNGRPFEIPVRMYRTPNGKIEPLPEEELKDWAKDLFSA [r9_1056_TrROS] | < -1 kcal/mol
SAGGSAFKVPPGNIKEEEDFKFKFPDGNNMKIKIIRYPGKKRLMMENPGNNEPQTMPVEDLKEMLQSAGGSA [r15_329_TrROS] | < -1 kcal/mol
SAGGSAPEPYTFKMKNPKGPPVEITITRNPNNGNYMISVEMPGPGKKHEGPMPMEDLNNLPGLEPVSAGGSA [r15_622_TrROS] | < -1 kcal/mol
KTYYLKAENAPFEEIVEKAREALEADPEEGAEIVIEVPGNPELLEKLDFDEIIPYDIPERPLYIVRAKAPPS [r1_467_TrMRF] | < -1 kcal/mol
SAMPLSELEFVEERVFPDPPVRISVYRLPSPGVWVVPVLEPGTGRPRLVELEAADGVLDEEEVRAAVLESAG [r14_948_JUSTAS] | < -1 kcal/mol

Sequence | folding stability dG unfold
STLENIEYIKLPKNKTLPLPGGETISPDEEIAIDLDKKKYINKEELEELKKKIEEELEKKKPKENPKNLISA [r9_517_JUSTAS] | < -1 kcal/mol
SAGGSAGGSAGDLGLEDDTFILKATYPDGTPATIPLKKSEISKISKDNIKSIEFYPKSKLSAGGSAGGSAGG [r11_779_JUSTAS] | < -1 kcal/mol
SAGGSAGGSAGGSTLEEIREMAKQGKKFKIRNPGNNQEHEIRPDDLDDFRGSPISIEPVSAGGSAGGSAGGS [r4_157_TrROS] | < -1 kcal/mol
SAGGSAGGSVVPIEYDEDGMLKIEHRNNDKKREHTIPADDADEMPPDFLKDLPPDKIDEITPYSAGGSAGGS [r12_793_TrROS] | < -1 kcal/mol
SAGGSAGGSMVEVVVRPPGGPEYRVSPETSPEEVRARVEAEAGPPPEIEISEEEAKALGVPARSAGGSAGGS [r12_379_JUSTAS] | < -1 kcal/mol
SAGMVKIKIYVENPETGEEKELEIVKEFESEEEAEKEAEKIAKELEKAGYKVKKIEIEVIPLPPLPENPSAG [r5_660_TrMRF] | > 6 kcal/mol
SAGGGSSMPRRRALPDGTALETTLGDSVATVRATRYVGDRPLETAERVLPDVPPDVDAEVDFDLPPGSAGGS [r8_155_JUSTAS] | < -1 kcal/mol
SAGIKEIAKKLGMPPNNIKIKNIQPQPRRKPDPEDGKPEPEPYPTVSVEIEAPGNGKKREASIPADEIQSAG [r5_517_TrROS] | < -1 kcal/mol
SAGGSAGGSGMPVVLLEATFDPNNPGTTYRLTTVDPNTGGVAESEIPASEAEARGLGPLDVLESAGGSAGGS [r12_123_JUSTAS] | < -1 kcal/mol
SAGAPVVEKKRTIPSPLGAPAYLVFVPEEDRIVFTRPGSGEPVELSVPPDSEVEVPAPPSGSLTYRWESAGG [r19_118_JUSTAS] | < -1 kcal/mol
SAKITITLPNGKKIEIELPEGYEIVEVTFDKETGVITIKVKNKETGKEYKITLTFNEDGSLTISIEEVDSAG [r14_311_TrROS_Hall] | > 6 kcal/mol
SAGGSAGGSAGGGPDWVLRRRTLEESSPVSTTPNPTGRRRTGYRTLVREEEVVLPPDLESAGGSAGGSAGGS [r10_524_JUSTAS] | < -1 kcal/mol
SAGGSAGGSKILEIERDPEKGLVKITVPPDVPPNPHPRLLKVEPKNNKYIVTFPMSPSDEIELSAGGSAGGS [r20_37_JUSTAS] | < -1 kcal/mol
SAGGSAGGSMKTVTIEVKRPSPDITLEDIKEELLKKNPEVEEVEVEEYPEEGLYKVKVTIKPKSAGGSAGGS [r20_31_JUSTAS] | < -1 kcal/mol
SAGGSAGGSAGGMTKTYVTPVSPDVSEEEIKEKLAPEVSSVEVERDEESGTVTITTTLDSAGGSAGGSAGGS [r10_1007_JUSTAS] | < -1 kcal/mol
SAGGIPLKEIKEMIENDPGETWTAQIYRMPPGPNGQMQQQTIEFPIKDPEDALDNLPPGYMVHVEPRSAGGS [r16_116_TrROS] | < -1 kcal/mol
SAGGSAGGSAGGSPAFVAPSPDAYLSADPVTGEWEPVPADHVVLSVDPSNGRVTISDPLSAGGSAGGSAGGS [r4_127_TrMRF] | < -1 kcal/mol
SAGGSAKVTVDEKDLKVTVESNIPVLVTYTLPGGKKKPFAGYLPPEKIEEFAKKEAEKFATELLGKSAGGSA [r15_365_TrMRF] | < -1 kcal/mol
SAGGSVLPPDAVVYGTETRPFPNGETVEVERERRFPPRPPAPAGVLVEYPDGTVVPAPSPEEAAALLSAGGS [r16_580_JUSTAS] | < -1 kcal/mol

Sequence | folding stability dG unfold
SAGGSAGGSAGGSTKTIMLDSPEKVEELVEEAMEKGDPITIEYHDPGEGKPFEFKFPVKSAGGSAGGSAGGS [r4_188_TrROS] | < -1 kcal/mol
SAGGSAGGSEVTEFTGTIEDPNSSTVIEVKTKVIPLPNGTPVTITETTTTTGEKTTTTTTTFASAGGSAGGS [r12_619_JUSTAS] | < -1 kcal/mol
SAGGSAGGPPMEPIPFRVRVDEVEHDPPNGNVVITIKDGDKNPHTINIPPEMAKNMPIEPGDELSAGGSAGG [r6_915_TrROS] | < -1 kcal/mol
SATTTTETLPDGGVLTTTTLPDGSPATGLIDPANGAPFTATHPNGLRTVWSQSPSGKVTTLSTTNVPPSSAG [r14_877_JUSTAS] | < -1 kcal/mol
SAGGSAGGSMELPSGVVVKSTSEDPAAKTVTVSFPSGAVYTLPLPDPNVSQPVTVKTPPGAGVSAGGSAGGS [r12_149_JUSTAS] | < -1 kcal/mol
SAGGKITITLPNGAKIEIEEEEVEVDGKTYLVFKAKITNKDGSKYLITVVIDKKTKEIVSISIEKLPSAGGS [r8_492_TrROS_Hall] | > 6 kcal/mol
SAGGSAGGSGDKSPPLVPTVTLKTTDPDAVEKAVKAAGVAVTRYPGKGYYTFRKADVEKILKSSAGGSAGGS [r12_325_TrMRF] | < -1 kcal/mol
SAGGSAGGSAGGLKIPKGYPWKLSHNNGKEREFKFDSLDDIKEELNVPIPPGRNIQIEPYSAGGSAGGSAGG [r7_223_TrROS] | < -1 kcal/mol
SAGPKIEIEPLDWERDPGNGHMVIPVEISVKVPREENGRPPEQAEEKKESLVREFAREWAPKHGMPIHVSAG [r5_333_TrROS] | < -1 kcal/mol
SAGGSAGGSAGGIYIPMDDLKKNGMSIEQFADKLGHPVEIEVERNEPGSPVFKIEPDAKSAGGSAGGSAGGS [r10_855_TrROS] | < -1 kcal/mol
SAGGSAPPPKMKRIELKVEDPEHGYEVRVEVMIYPNDSISIQYESPNGKPLPKERAQKLLKELGIESAGGSA [r15_872_TrROS] | < -1 kcal/mol
SAGGSAMIEVETRPLPTPRELVTVKFDSEELLPEVIEKLPGVEEVEVSESKGDGKPYYTATFVIPRSAGGSA [r15_344_JUSTAS] | < -1 kcal/mol
SAGMDIYTETVVPLRVETDEEEIEEIIEKAKEEAEKKGYKPVEIPVETEPSPEGKTLVTIPVKLLKKAPSAG [r14_109_JUSTAS] | < -1 kcal/mol
SAGGSAGGSAGGPDVEKYPFKFPGKKFKIQRNPDDPDSYMISFPPGKTETFPLDDIKPLSAGGSAGGSAGGS [r10_556_TrROS] | < -1 kcal/mol
SAGGSAGGSAGEITIRMPMPDPDGGRRRIQFTIEKIKLPPGQKIKIVSVGPNGSFTIKPKSAGGSAGGSAGG [r11_733_TrROS] | < -1 kcal/mol
SAGGSAGGSAGGPEGQWIDMDVEHNPKNNKLTIKFPDSGKPITIPANNIERVGDYIRINSAGGSAGGSAGGS [r10_942_TrROS] | < -1 kcal/mol
SAGGSAGGSAMLVELEAGRVIEVPDATPEETRERVRAAVPPEVADEVRIVRAYDPERPVELSAGGSAGGSAG [r3_340_JUSTAS] | < -1 kcal/mol
SAGPNPGEPLTVVTETSTEKVPTSSGRAVPVTTSTASNGTVIEKFPDGKVLVFEPGKGPENKTVLPEVSAGG [r19_199_JUSTAS] | < -1 kcal/mol
SAGGSAGGSTIPIRDPNREIEIVKHPDNMYRIEIEPNGGKREIILPPEAMQQKPITIEELIDQSAGGSAGGS [r20_90_TrROS] | < -1 kcal/mol
